# Experimental data as given in US20100022456A1 (Novo Nordisk, published 2010).
# T1: Ser-hPRLR(1-210) (human, UniProt P16471 25-234)
# T1 construct: range 1-210; Amine-coupled to a CM5 chip in the SPR assay; also called soluble form of the receptor; PRL receptor
# T1 sequence: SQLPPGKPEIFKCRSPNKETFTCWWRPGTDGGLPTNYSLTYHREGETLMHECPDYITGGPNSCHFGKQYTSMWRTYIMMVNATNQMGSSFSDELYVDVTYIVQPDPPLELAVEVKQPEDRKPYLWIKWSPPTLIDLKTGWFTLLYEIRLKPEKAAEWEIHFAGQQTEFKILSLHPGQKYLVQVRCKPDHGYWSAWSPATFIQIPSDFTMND
# Biological target: T1, Ser-hPRLR(1-210)
# Experiment: SPR (Biacore T100), receptor amine-coupled to CM5 chip, ligand injected
# Method: The soluble form of the receptor (10 μg/ml in 10 mM sodium acetate, pH 4.0) was injected into a Biacore T100 instrument and coupled to a CM5 sensor chip by amine coupling chemistry. The immobilized level was about 500 RUs of coupled receptor. […] Regeneration was accomplished with 4.5 M MgCl₂ for 90 sec with a flow rate of 30 μl/min between runs.
row,Kd,Binder
1,6 nM,"Disulfide bridged PRL 12-199 Q12S E128C dimer (ligand, intermolecular disulfide bridge between Cys 128 of the two monomers, also called PRL dimer 1; 0033) SVTLRDLFDRAVVLSHYIHNLSSEMFSEFDKRYTHGRGFITKAINSCHTSSLATPEDKEQAQQMNQKDFLSLIVSILRSWNEPLYHLVTEVRGMQEAPEAILSKAVEIEEQTKRLLCGMELIVSQVHPETKENEIYPVWSGLPSLQMADEESRLSAYYNLLHCLRRDSHKIDNYLKLLKCRIIHNNNC"
2,20 nM,"Disulfide bridged PRL 12-199 Q12S R125C dimer (ligand, intermolecular disulfide bridge between Cys 125 of the two monomers) SVTLRDLFDRAVVLSHYIHNLSSEMFSEFDKRYTHGRGFITKAINSCHTSSLATPEDKEQAQQMNQKDFLSLIVSILRSWNEPLYHLVTEVRGMQEAPEAILSKAVEIEEQTKCLLEGMELIVSQVHPETKENEIYPVWSGLPSLQMADEESRLSAYYNLLHCLRRDSHKIDNYLKLLKCRIIHNNNC"
3,30 nM,"PRL(12-199) Q12S G129R (ligand, Monomeric prolactin receptor antagonist analogue; also called PRL G129R analog) SVTLRDLFDRAVVLSHYIHNLSSEMFSEFDKRYTHGRGFITKAINSCHTSSLATPEDKEQAQQMNQKDFLSLIVSILRSWNEPLYHLVTEVRGMQEAPEAILSKAVEIEEQTKRLLERMELIVSQVHPETKENEIYPVWSGLPSLQMADEESRLSAYYNLLHCLRRDSHKIDNYLKLLKCRIIHNNNC"
4,3 nM,"Disulfide bridged PRL 12-199 Q12S S61A E128C dimer (ligand, intermolecular disulfide bridge between Cys 128 of the two monomers) SVTLRDLFDRAVVLSHYIHNLSSEMFSEFDKRYTHGRGFITKAINSCHTASLATPEDKEQAQQMNQKDFLSLIVSILRSWNEPLYHLVTEVRGMQEAPEAILSKAVEIEEQTKRLLCGMELIVSQVHPETKENEIYPVWSGLPSLQMADEESRLSAYYNLLHCLRRDSHKIDNYLKLLKCRIIHNNNC"
